Assay results from article PMC3613824 (Cell Death & Disease, 2013).

Target: MBP-DLC2 (dynein light chain-2 fused to maltose-binding protein) (UniProt Q96FJ2 1-89)
Experiment: pull-down

B1: GST-MVaf1 (myosin-Va medial tail fragment 1, MYO5A 1276-1328 [+B], fused to glutathione-S-transferase) (domain or fragment)
chain: QKEAIQPKDDKNTMTDSTILLEDVQKMKDKGEIAQAYIGLKETNRSSALDYHE
B1: binds.
